Test results: patent US20090311248A1

Target: E1s (HCV E1 envelope protein, aa 192-326 of the HCV polyprotein) (Hepatitis C virus (HCV))
Experiment: coating ELISA, E1s at 0.5 ug/ml, hybridoma supernatant

- O.D. value (450-595 nm): > 2 O.D.
Substance: 4G2 (antibody)
